# Bridge positions count the residues as written; N and C are the ends. Square brackets hold non-standard residues; d marks the D form. Ends that are not written are not given here. * marks the point of attachment. 5‑TAMRA = CN(C)c1ccc2c(-c3ccc(C(=O)*)cc3C(=O)[O-])c3ccc(N(C)C)cc3[o+]c2c1; n3 = azido unnatural amino acid, 3 CH2 in side chain; Lys(N3) = [N-]=[N+]=NCCCC[C@H](N)C(=O)O; Dap(N3) = [N-]=[N+]=NC[C@H](N)C(=O)O; Aha = [N-]=[N+]=NCC[C@H](N)C(=O)O; m3c = not defined here; m3 = not defined here; m4 = not defined here; m5 = not defined here; Ahx = NCCCCCC(=O)O
# T1: human tankyrase 2 ankyrin repeat cluster 4 (TNKS2 ARC4, residues 488-649) (human, UniProt Q9H2K2 488-649)
# T1 sequence (looked up): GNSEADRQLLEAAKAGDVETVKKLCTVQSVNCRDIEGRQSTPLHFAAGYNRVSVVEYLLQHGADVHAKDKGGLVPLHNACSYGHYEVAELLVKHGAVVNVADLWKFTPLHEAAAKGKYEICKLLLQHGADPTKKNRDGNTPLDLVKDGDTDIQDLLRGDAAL
# T2: TNKS2 ARC4 (Homo sapiens, UniProt Q9H2K2)
# T2 construct: GST (cleaved yes); made in house; host or cells: E. coli C41(DE3)
# T2 sequence (Q9H2K2 488-649): T1 sequence (looked up)
# T3: human tankyrase 1 ankyrin repeat clusters 2-3 (TNKS1 ARC2-3, residues 315-662) (human, UniProt O95271 315-662)
# T3 sequence (looked up): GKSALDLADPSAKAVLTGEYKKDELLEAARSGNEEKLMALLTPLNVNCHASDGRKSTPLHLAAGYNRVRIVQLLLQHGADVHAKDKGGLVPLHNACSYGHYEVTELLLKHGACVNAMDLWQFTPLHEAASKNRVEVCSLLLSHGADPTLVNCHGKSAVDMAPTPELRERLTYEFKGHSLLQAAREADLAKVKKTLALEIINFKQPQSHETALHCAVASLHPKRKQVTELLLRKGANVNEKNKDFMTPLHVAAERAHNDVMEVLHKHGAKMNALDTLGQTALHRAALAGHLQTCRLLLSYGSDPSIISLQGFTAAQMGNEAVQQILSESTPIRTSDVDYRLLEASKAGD
# Target: T1, human tankyrase 2 ankyrin repeat …
# Assay: fluorescence polarisation; direct: TNKS2 ARC4 or TNKS1 ARC2-3 diluted 2-fold serially (40-0 uM, 50 uL) and mixed with TAMRA-labeled peptide (20 nM, 50 uL); 50 mM HEPES pH 7.5, 300 mM NaCl, 2 mM DTT, 0.05% Tween 20; 30 min, 25 C
# Settings: both partners purified
row,Molecule,Kd [µM]
1,{5‑TAMRA-Ahx}-RE[n3]GDG[n3]E (bridge 3-7; not fully specified (bridges)) [T-cp4n3m3c],15.4 ± 0.6
2,{5‑TAMRA-Ahx}-RE[Aha]GDG[n3]E (triazole 3-7 via m5; reading uncertain) [T-cp4n23m5],4.3 ± 0.2
3,{5‑TAMRA-Ahx}-RE[n3]GDG[Aha]E (triazole 3-7 via m4; reading uncertain) [T-cp4n32m4],11.1 ± 0.9
4,{5‑TAMRA-Ahx}-RE[Dap(N3)]GDG[Aha]E (triazole 3-7 via m3; reading uncertain) [T-cp4n12m3],12.5 ± 0.5
5,{5‑TAMRA-Ahx}-RE[Aha]GDG[n3]E (triazole 3-7 via m4; reading uncertain) [T-cp4n23m4],1.7 ± 0.05
6,{5‑TAMRA-Ahx}-RE[Aha]GDG[Dap(N3)]E (triazole 3-7 via m5; reading uncertain) [T-cp4n21m5],13.6 ± 1.1
7,{5‑TAMRA-Ahx}-RE[n3]GDG[Aha]E (triazole 3-7 via m3c; reading uncertain) [T-cp4n32m3c],15.3 ± 0.6
8,{5‑TAMRA-Ahx}-RE[Aha]GDG[Dap(N3)]E (triazole 3-7 via m3; reading uncertain) [T-cp4n21m3],22.8 ± 1.3
9,{5‑TAMRA-Ahx}-RE[Aha]GDG[n3]E (triazole 3-7 via m3c; reading uncertain) [T-cp4n23m3c],15.5 ± 0.6
10,{5‑TAMRA-Ahx}-RE[Dap(N3)]GDG[Aha]E (triazole 3-7 via m4; reading uncertain) [T-cp4n12m4],8.9 ± 0.3
11,{5‑TAMRA-Ahx}-RE[Aha]GDG[Dap(N3)]E (triazole 3-7 via m4; reading uncertain) [T-cp4n21m4],5.8 ± 0.2
12,{5‑TAMRA-Ahx}-RE[Dap(N3)]GDG[Dap(N3)]E (triazole 3-7 via m4; reading uncertain) [T-cp4n1m4],61.8 ± 33.9
13,{5‑TAMRA-Ahx}-RE[Dap(N3)]GDG[Aha]E (triazole 3-7 via m5; reading uncertain) [T-cp4n12m5],7.7 ± 0.3
14,{5‑TAMRA-Ahx}-RE[n3]GDG[Aha]E (triazole 3-7 via m3; reading uncertain) [T-cp4n32m3],6.1 ± 0.2
15,{5‑TAMRA-Ahx}-RE[n3]GDG[Aha]E (triazole 3-7 via m5; reading uncertain) [T-cp4n32m5],4.2 ± 0.12

# Target: T2, TNKS2 ARC4
# Assay: Direct fluorescence polarization, TNKS2 ARC4
# Format: binding
# Settings: TAMRA-labeled peptides; n.d. = not detectable
# Description: Fluorescence polarization (FP) assays were performed in 96-well half area black microplates (Corning) on a CLARIOstar microplate reader (BMG labtech) using excitation filter 540–20 nm, dichroic mirror LP 566 nm, and emission filter 590–20 nm. All peptides were dissolved in water as stock solutions. For direct FP assays, the stock concentrations of the TAMRA-labeled peptides were determined based on the 5-TAMRA absorbance at 556 nm (extinction coefficient ε = 89,000 M^–1 cm^–1) measured on a NanoDrop 2000 (Thermo Scientific) and verified by amino acid analysis (Department of Biochemistry, University of Cambridge). TNKS2 ARC4 (488–649) or TNKS1 ARC2–3 (315–662) was diluted 2-fold serially in the assay buffer (50 mM HEPES pH 7.5, 300 mM NaCl, 2 mM DTT, 0.05% (v/v) Tween 20) for a 12-point titration curve in triplicate. The diluted TAMRA-labeled peptide (20 nM, 50 μL) was mixed with the serially diluted TNKS2 ARC4 or TNKS1 ARC2–3 (40–0 μM, 50 μL) in each well and incubated for 30 min at 25 °C before the measurement. Data were analyzed on GraphPad Prism 5.0, and the dissociation constant, Kd, was determined using the following equation assuming the ratio between the concentration of the bound and that of the total TAMRA-labeled peptide is proportional to the fluorescence polarization [drawing 1] where FP is the fluorescence polarization, B is the minimum FP, T is the maximum FP, L0 is the total concentration of TAMRA-labeled peptide, P0 is the total concentration of protein, and Kd is the dissociation constant.
row,Molecule,Kd TNKS2 ARC4 (Direct FP)
1,"cp4n1m3: non-binding cross-linked peptide, REXGDGXE, UAA side chains n=1, linker m3 (RE[Dap(N3)]GDG[Dap(N3)]E; linker 3-7 via m3 (inferred); reading uncertain)",nondetectable

# Target: T1, human tankyrase 2 ankyrin repeat …
# Assay: ITC; TNKS2 ARC4 (160-280 uM) or TNKS1 ARC2-3 (60-150 uM) titrated into the cell with unlabeled peptide (5-15 uM) or Axin1 fragment (8-12 uM); PBS, 0.5 mM TCEP; 25 C; one-site model; stoichiometry = TNKS per peptide or Axin1
# Settings: both partners purified
Molecule,Kd [µM],stoichiometry N
Ac-RE[Aha]GDG[Aha]E-NH2 (bridge 3-7; not fully specified (bridges)) [cp4n2m3c (unlabeled)],0.64 ± 0.01,1.1 ± 0.002
Ac-RE[Aha]GDG[Aha]E-NH2 (triazole 3-7 via m3; reading uncertain) [cp4n2m3 (unlabeled)],0.89 ± 0.04,0.9 ± 0.005
Ac-REAGDGEE-NH2 [pep1 (unlabeled linear consensus peptide Ac-REAGDGEE)],1.18 ± 0.04,1 ± 0.004

# Target: T3, human tankyrase 1 ankyrin repeat …
# Assay: as above
# Settings: both partners purified
Molecule,Kd [µM],stoichiometry N
Ac-RE[Aha]GDG[Aha]E-NH2 (bridge 3-7; not fully specified (bridges)) [cp4n2m3c (unlabeled)],0.37 ± 0.04,1.1 ± 0.02
Ac-RE[Aha]GDG[Aha]E-NH2 (triazole 3-7 via m3; reading uncertain) [cp4n2m3 (unlabeled)],0.26 ± 0.03,0.9 ± 0.01
Ac-REAGDGEE-NH2 [pep1 (unlabeled linear consensus peptide Ac-REAGDGEE)],,0.9 ± 0.01

# Target: T1, human tankyrase 2 ankyrin repeat …
# Assay: fluorescence polarisation; competition: unlabeled peptide or Axin1 fragment diluted 2-fold serially against TAMRA-labeled pep1 (20 nM) with TNKS2 ARC4 (3 uM); PBS, 0.05% Tween 20; 30 min, 25 C
# Settings: both partners purified
row,Molecule,Kd [µM]
1,Ac-RE[Lys(N3)]GDGE[Lys(N3)] (bridge 3-8; not fully specified (bridges)) [cp5n4m5c],13.9 ± 2.1
2,Ac-RE[Lys(N3)]GDG[Lys(N3)]E-NH2 (bridge 3-7; not fully specified (bridges)) [cp4n4m5],2.8 ± 0.1
3,Ac-R[Aha]AGDG[Aha]E (bridge 2-7; not fully specified (bridges)) [cp2n2m7N],53.3 ± 8.3
4,Ac-R[Lys(N3)]AGDG[Lys(N3)]E (bridge 2-7; not fully specified (bridges)) [cp2n4m5],14.1 ± 4
5,Ac-R[Lys(N3)]AGDGE[Lys(N3)] (bridge 2-8; not fully specified (bridges)) [cp3n4m7N],35.5 ± 2.5
6,Ac-RE[Lys(N3)]GDGE[Lys(N3)] (bridge 3-8; not fully specified (bridges)) [cp5n4m5],7.9 ± 1.2
7,Ac-RE[Lys(N3)]GDG[Lys(N3)]E (bridge 3-7; not fully specified (bridges)) [cp4n4m5c],16.7 ± 2
8,Ac-R[Lys(N3)]AGDGE[Lys(N3)] (bridge 2-8; not fully specified (bridges)) [cp3n4m5],23.4 ± 4.2
9,Ac-RE[Lys(N3)]GDG[Lys(N3)]E (bridge 3-7; not fully specified (bridges)) [cp4n4m7N],6.5 ± 0.2
10,Ac-R[n3]AGDG[n3]E (bridge 2-7; not fully specified (bridges)) [cp2n3m7N],14.7 ± 0.8
11,Ac-R[Lys(N3)]AGDG[Lys(N3)]E (bridge 2-7; not fully specified (bridges)) [cp2n4m7N],32.4 ± 1.7

# Reference: PMC5358875 (Journal of the American Chemical Society, 2017)
